# According to doi:10.1101/2024.06.20.599911 (bioRxiv, 2024):
# T1: GFP-AtCNIH5 (genomic AtCNIH5pro: GFP-AtCNIH5 in cnih5) (Arabidopsis thaliana, UniProt Q9SZ74 1-135)
# T1 sequence (looked up): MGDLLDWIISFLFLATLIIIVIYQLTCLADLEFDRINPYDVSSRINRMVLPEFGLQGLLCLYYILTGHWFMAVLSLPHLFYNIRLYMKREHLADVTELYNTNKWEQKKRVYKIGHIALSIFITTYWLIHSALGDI
# Target: T1, GFP-AtCNIH5 (genomic AtCNIH5pro: …)
# Experiment: co-IP
binder,measurement,value
"endogenous AtPHF1 (natural protein, UniProt Q8GYE0 1-398, looked up) MEIEEASRESGHVVCGSWIRRPKKVNWVLIAKASKRRGSSVSSPALLNIFSFDPITASLSSSPLATHTLKDSDGDPVAVSVHPGGDYFVCSTSKGGCKLFELVGGATGITILAKELLPLQNAGLQKCMAFSFDGSKLAVGGVDGCLRIMEWPNLSVILDEPKAHKSIRDMDFSLDSEFLATTSTDGSARIWKAEDGFPLSTLERSGDENIELCRFSKDGTKPFLFCAAQRGDTPMVNVYDISTWKKLGFKKLSRKTASTMAVSLDGKYIALGGKDGDVSVAEVKTMEIYHYSKRLHLGQSIASLEFCPSERVMLTTSSEWGEMVTKLTVPKEWKEWQIYALLFCLFMASVIAAYVFFENSDSFWKLPMGKDQKRPKISLFGGSSSTPSEDHSRWNLDL",fold co-immunoprecipitated against the free GFP control,~40 times
